# Molecular target: HIV-1_(JR-FL) Env(−)ΔCT glycoprotein (uncleaved, cytoplasmic tail-truncated envelope glycoprotein precursor) (HIV-1 (isolate JR-FL))
# Assay: cryo-EM structure
substance,measurement,value
"HIV-1_(JR-FL) Env(−)ΔCT glycoprotein (uncleaved, cytoplasmic tail-truncated envelope glycoprotein precursor) (natural protein)",stoichiometry N,3
